Data as given in the supplement of paper PMC7877785.
± gives the uncertainty stated by the source.

Assay: self-splicing fitness, log relative to wild type (ln ratio); higher = more splicing; Tetrahymena group I intron in knt gene, E. coli kanamycin selection, DiMSum; sequences stand for … in CUCUCU…GGAGGGAAAAGUUAUCAGGCAUGCACCUGGUAGCUAGUCUUUAAACCAAUAGAUUGCAUCGGUUUAAAAGGCAAGACCGUCAAAUUGCGGGAAAGGGGUCAACAGCCGUUCAGUACCAAGUCUCAGGGGAAACUUUGAGAUGGCCUUGCAAAGGGUAUGGUAAUAAGCUGACGGACAUGGUCCUAACCACGCAGCCAAGUCCUAAGUCAACAGAUCUUCUGUUGAUAUGGAUGCAGUUCACAGACUAAAUGUCGGUCGGGGAAGAUGUAUUCUUCUCAUAAGAUAUAGUCGGACCUCUCCUUAAUGGGAGCUAGCGGAUGAAGUGAUGCAACACUGGAGCCGCUGGGAACUAAUUUGUAUGCGAAAGUAUAUUGAUUAGUUUUGGAGUACUCGUGGUCG
How it was run: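 Library with all eight P1ex-region intron nucleotides randomised, intron inside the knt kanamycin-resistance gene on pET-22b(+), in E. coli BL21(DE3). Cells grew overnight at 37°C or 30°C on LB agar with or without 25 μg/mL kanamycin (plus 100 μg/mL carbenicillin, 50 μM IPTG, 0.2% rhamnose), in six replicate transformations. Pooled colonies were amplicon-sequenced on Illumina HiSeq 2500. DiMSum fitness is the error-weighted combination of wild-type-normalised replicate fold changes, kanamycin versus none.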

Sequence	self-splicing fitness (ln) (30 °C)	self-splicing fitness (ln) (37 °C)
AUAAAGCAAUAUUACGUAUA	-1.91 ± 0.099	-0.351 ± 0.12
UGGCAGCAAUAUUACGAGUA	-1.75 ± 0.15	-1.46 ± 0.13
CCGAAGCAAUAUUACGGGUG	-0.732 ± 0.047	-0.639 ± 0.061
GUGGAGCAAUAUUACGGUAC	-2.81 ± 0.14	-1.71 ± 0.15
AUUAAGCAAUAUUACGUGAG	-0.882 ± 0.049	-0.33 ± 0.081
ACAGAGCAAUAUUACGUAUG	-2.91 ± 0.17	-3.39 ± 0.37
AGAAAGCAAUAUUACGAUUG	-3.82 ± 0.27	-1.93 ± 0.21
UACGAGCAAUAUUACGAUAG	-3.66 ± 0.47	-2.31 ± 0.42
GAUGAGCAAUAUUACGUAGA	-3.51 ± 0.24	-1.88 ± 0.2
CCAGAGCAAUAUUACGUCCA	-2.05 ± 0.33	-1.44 ± 0.35
GUGGAGCAAUAUUACGCAGG		-1.19 ± 0.28
GGUAAGCAAUAUUACGCUGA	-2.82 ± 0.28	-0.411 ± 0.22
CCAUAGCAAUAUUACGCACC	-1 ± 0.34	
UGCAAGCAAUAUUACGGUGC	-3.59 ± 0.16	-2.49 ± 0.19
CGCCAGCAAUAUUACGCUUC	-2.77 ± 0.26	-3.27 ± 0.37
CCCCAGCAAUAUUACGACCA	-2.81 ± 0.18	-1.43 ± 0.16
GCAGAGCAAUAUUACGAGUA	-3.23 ± 0.5	-1.35 ± 0.43
ACUCAGCAAUAUUACGAGUU	-4.72 ± 0.21	-2.36 ± 0.17
AGCAAGCAAUAUUACGGUAU	-2.35 ± 0.075	-0.546 ± 0.068
GAGGAGCAAUAUUACGCAUU	-2.99 ± 0.43	-0.645 ± 0.33
GGAUAGCAAUAUUACGAUUC	-2.52 ± 0.15	-0.731 ± 0.16
CUCCAGCAAUAUUACGUGGG	-3.29 ± 0.11	-2.62 ± 0.14
CGACAGCAAUAUUACGCCUU	-2.4 ± 0.22	-1.61 ± 0.23
CGUUAGCAAUAUUACGCAUG	-1.13 ± 0.12	-0.626 ± 0.17
AGUUAGCAAUAUUACGGAUA	-2 ± 0.31	-1.42 ± 0.25

Sequence	self-splicing fitness (ln) (30 °C)	self-splicing fitness (ln) (37 °C)
UUACAGCAAUAUUACGAACA	-0.742 ± 0.11	-1.07 ± 0.12
UAUCAGCAAUAUUACGUUAG	-1.22 ± 0.095	-1.03 ± 0.094
UUUUAGCAAUAUUACGGACG	-0.75 ± 0.2	-0.45 ± 0.2
GCUGAGCAAUAUUACGGCAU	-2.59 ± 0.2	-1.82 ± 0.18
CACUAGCAAUAUUACGGUUA	-1.99 ± 0.12	-0.466 ± 0.1
AUAUAGCAAUAUUACGUCGG	-3.37 ± 0.33	-2.03 ± 0.28
UGUUAGCAAUAUUACGACCA	0.586 ± 0.18	-0.351 ± 0.24
CUUCAGCAAUAUUACGCACA	-2.37 ± 0.24	
CUACAGCAAUAUUACGGGAC	-2.98 ± 0.14	-2.06 ± 0.15
UUGGAGCAAUAUUACGUGGA	-2.9 ± 0.33	-2.24 ± 0.25
CGUAAGCAAUAUUACGGUUG	-0.897 ± 0.061	-0.159 ± 0.078
GACCAGCAAUAUUACGCCGC	-3.75 ± 0.32	
CUAGAGCAAUAUUACGCGAC	-0.657 ± 0.13	0.181 ± 0.16
ACCAAGCAAUAUUACGCAUA	-1.77 ± 0.068	-1.44 ± 0.073
CAAAAGCAAUAUUACGGGGC	-3.66 ± 0.26	-3.02 ± 0.23
CUUAAGCAAUAUUACGGUGU	-3.31 ± 0.22	-2.02 ± 0.18
UGUGAGCAAUAUUACGAAGC	-2.81 ± 0.34	-2.08 ± 0.47
ACGAAGCAAUAUUACGAGAU	-4.36 ± 0.17	-1.79 ± 0.16
CAGUAGCAAUAUUACGUAGA	-3.03 ± 0.14	-1.85 ± 0.16
GUACAGCAAUAUUACGCAAG	-2.59 ± 0.16	-2.08 ± 0.17
UGUGAGCAAUAUUACGGACG	-0.792 ± 0.12	-0.0879 ± 0.18
GCGGAGCAAUAUUACGAUAA		-2.08 ± 0.35
CAACAGCAAUAUUACGGGCC	-5.11 ± 0.46	-1.48 ± 0.14
CCAAAGCAAUAUUACGGUAC	-3.5 ± 0.24	-3.13 ± 0.29
CGCCAGCAAUAUUACGCUGG	-3.22 ± 0.17	-2.2 ± 0.18

Sequence	self-splicing fitness (ln) (30 °C)	self-splicing fitness (ln) (37 °C)
CGACAGCAAUAUUACGUGUU	-2.38 ± 0.086	-3.04 ± 0.17
CCAUAGCAAUAUUACGUAGC	-2.52 ± 0.21	-2.05 ± 0.47
GGAAAGCAAUAUUACGGAAC	-3.58 ± 0.43	
GACGAGCAAUAUUACGUCCU	-3.24 ± 0.25	-1.81 ± 0.25
GGACAGCAAUAUUACGUCCC	-3.31 ± 0.4	
AUGAAGCAAUAUUACGGGAA	-1.83 ± 0.11	-0.953 ± 0.14
CUAUAGCAAUAUUACGAGCA	-2.91 ± 0.25	-2.36 ± 0.33
AAAAAGCAAUAUUACGACCG	-0.107 ± 0.13	-0.00629 ± 0.17
CCAAAGCAAUAUUACGUGGA	-3.55 ± 0.15	-2.81 ± 0.21
UAGAAGCAAUAUUACGCCCC	-3.03 ± 0.2	-1.63 ± 0.23
GAAAAGCAAUAUUACGUCAC	-2.2 ± 0.19	-1.64 ± 0.31
GACAAGCAAUAUUACGUCCA	-2.8 ± 0.14	-1.42 ± 0.13
UCGGAGCAAUAUUACGCUGG	-3.78 ± 0.46	-1.26 ± 0.17
ACACAGCAAUAUUACGAGGA	-2.42 ± 0.2	-1.66 ± 0.18
GUUCAGCAAUAUUACGGACU	-3.7 ± 0.14	-2.88 ± 0.18
CAUGAGCAAUAUUACGAUUG	-4.17 ± 0.26	-3.15 ± 0.24
UUGCAGCAAUAUUACGGCCG	-1.21 ± 0.096	-0.459 ± 0.12
UACCAGCAAUAUUACGUACC	-2.33 ± 0.11	-2.23 ± 0.17
CCAAAGCAAUAUUACGCAUA	-3.42 ± 0.15	-2.38 ± 0.17
GCUAAGCAAUAUUACGCAAU	-1.55 ± 0.17	-1.75 ± 0.15
CUCAAGCAAUAUUACGAGAG	-3.27 ± 0.22	-1.81 ± 0.23
AACGAGCAAUAUUACGUGAG	-3.58 ± 0.17	-0.98 ± 0.13
GCUUAGCAAUAUUACGCUAC		-3.24 ± 0.28
GAGAAGCAAUAUUACGACUA	-0.502 ± 0.061	0.183 ± 0.082
ACGCAGCAAUAUUACGGACG	-1.31 ± 0.05	-0.318 ± 0.07

Sequence	self-splicing fitness (ln) (30 °C)	self-splicing fitness (ln) (37 °C)
CCGUAGCAAUAUUACGUUGA	-2.67 ± 0.33	-3.13 ± 0.29
ACUAAGCAAUAUUACGUCCC	-1.43 ± 0.22	-1.07 ± 0.32
GUUAAGCAAUAUUACGAGAU	-2.48 ± 0.3	-1.81 ± 0.35
ACAGAGCAAUAUUACGCACU	-3.25 ± 0.17	-1.33 ± 0.14
UUCCAGCAAUAUUACGAAAG	-2.6 ± 0.27	-2.33 ± 0.27
CUAGAGCAAUAUUACGAUGC	-2.31 ± 0.42	-1.94 ± 0.43
GGGAAGCAAUAUUACGACGC	-0.0345 ± 0.14	-0.0751 ± 0.18
GGCGAGCAAUAUUACGAACA	-1.16 ± 0.16	-0.12 ± 0.14
CCCUAGCAAUAUUACGACAA	-3.22 ± 0.35	-2.1 ± 0.28
GUAAAGCAAUAUUACGAGGA	-1.81 ± 0.1	-1.52 ± 0.15
UCCGAGCAAUAUUACGUAGC	-3.33 ± 0.23	-2.14 ± 0.28
UAGCAGCAAUAUUACGUCCG	-0.746 ± 0.055	0.357 ± 0.08
CCGUAGCAAUAUUACGUGCA	-3.06 ± 0.21	-2.88 ± 0.15
CAACAGCAAUAUUACGCGAA	-2.16 ± 0.16	-1.61 ± 0.14
GCCUAGCAAUAUUACGCGUU	-0.166 ± 0.068	0.243 ± 0.075
UGUAAGCAAUAUUACGAUGG	-2.9 ± 0.13	-0.756 ± 0.12
ACGAAGCAAUAUUACGGCUU	-3.97 ± 0.24	-2.76 ± 0.22
CGCAAGCAAUAUUACGAAAA	-2.47 ± 0.38	-2.96 ± 0.4
GUUAAGCAAUAUUACGCGAA	-2.09 ± 0.21	0.0507 ± 0.2
UAACAGCAAUAUUACGCACG	-1.17 ± 0.058	-0.421 ± 0.072
ACUGAGCAAUAUUACGCGUA	-1.8 ± 0.15	-3.16 ± 0.28
GGUCAGCAAUAUUACGUUAC	-1.25 ± 0.061	-0.483 ± 0.08
